Source: the nanobody polyreactivity screen of Harvey et al. (2022)

Assay: yeast display, Sf9 membrane polyspecificity reagent, FACS + sequencing; frameworks hold sequencing errors
How it was run: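 A nanobody's polyreactivity label depends on the gate it was sorted from. Yeast display cells were stained with 10% biotinylated, detergent-solubilized Sf9 membrane reagent for 1 hour at 4 °C, enriched on streptavidin microbeads and sorted by FACS. The low and high (top ~1%) gates were set on anti-HA fluorescence for expression and streptavidin fluorescence for reagent binding.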

Row | Sequence | polyreactivity (PSR sort gate)
1 | HVQLVESGGGLVQAGGSLRLSCAASGGIFRGYTMGWYRQAPGKETEFVAAITYGGGGTYYADSVKGRFTISRDNAKNTVYLQMNSLKPEDTAVYYCNADLSDVAVTDHDYWGQGTQVTVSS | low polyreactivity
2 | HVQLVESGGGLVQAGGSLRLSCAASGGIFSYYAMGWFRQAPGKERELVAAISSRGTNTHYADSVKGRFTISRDNAKNTVDLQMNSLKPEDTAVYYCAADKRASPIYDWGQGTQVTVSS | high polyreactivity
3 | HVQLVESGGGLVQAGGSLRLSCAASGGTFYTYVMGWYRPAPGKERELVAAISGSGGSTYYADSVKGRFTISRDNAKNTVYLQMNSLKPEDTAVYYCAAVLYYGDIPYYYWGQGTQVTVSS | high polyreactivity
4 | HVQLVESGGGLVQAGGSLRLSCAASGIIFPIYAMGWYRQAARKERELVASISQSGASTYYADSVKGRFTISRDNAKNTVYLQMNSLNPEDTGVYYCAALNGVGPWQLSYEEFDYWGQGTQVTVSS | low polyreactivity
5 | HVQLVESGGGLVQAGGSLRLSCAASGIIFYQYAMGWYRQAPGKERELVATISSNGGATYADSVKGRFTISRDNAKNTVYLQMNSLKPEDTAVYYCNAGGRYHAPSGDYWGQGTQVTVSS | low polyreactivity
6 | HVQLVESGGGLVQAGGSLRLSCAASGIIFYYYTMGWYRPGPRKERELLAWSGGNTYYADSVKGRFTISRDNAKNTVYLQMNSLKPEDTAVYYCNALAIWSDDWDHWISYADDYWGQGTQVTVSS | low polyreactivity
7 | HVQLVESGGGLVQAGGSLRLSCAASGRISGANMGWDRQAPGKERELGAAISNGGSTNYADSVKGRFTISRANAKNTVYLQMNSLKPEDTAVYYCAKLGPRSYSSYRYDYWGQGTQVTVSS | high polyreactivity
8 | HVQLVESGGGLVQAGGSLRLSCAASGRSFRYNAMGWYRQAPGKERELVAAITRSGGSTDYADSVKGRFTISRDNAKNTVNLQMNSLKPEDTAVYYCAKLQNGQWSTSRVPGDYQYNYWGQGTQVTVSS | high polyreactivity
9 | HVQLVESGGGLVQAGGSLRLSCAASGRTFPRYAMGWYRQAPGTERELVAAISVRAGITYYADSVKGRFTISRDNAKNTVYLQMNSLKPEDTAVYYCAKDLWTTSYDEGDYWGQGTQVTVSS | low polyreactivity
10 | HVQLVESGGGLVQAGGSLRLSCAASGRTFVVNAMGWYRQAPGTEREFVAAISYRGDSTYYAVSVKGRFTFSRDNSKNTVYLQMNSLKPEDTAVYYCAARVLGPGRRYYYWGQGTQVTVSS | high polyreactivity
11 | HVQLVESGGGLVQAGGSLRLSCAASGSIFAQYAMGWYRQAPRKDRELLAAISRSTGRTYYADSVKGRFTISRDNAKNTVYLQMNSLKPEDNAVYYWNVVANRALSRSGYDYWGQGTQVTVSS | high polyreactivity
12 | HVQLVESGGGLVQAGGSLRLSCAASGSIFKRYAMGWYTQAPGKERELVAAITSGGSTNYADSVKGRFTISRDNAKNTVYLQMNSLKPEDTAVYYCAAEHDYYPSNLDYWGQGTQVTVSS | low polyreactivity
13 | HVQLVESGGGLVQAGGSLRLSCAASGSIFSGNAMGWSRQAPGKERELVAAIDWSGDSTYYADSVKGRFTLSRDNAKNTVYLQMNSLKPEDTAVYYCNTVSFSWGYSAYDYWGQGTQVTVSS | low polyreactivity
14 | HVQLVESGGGLVQAGGSLRLSCAASGSISAVNTMGWYRQAPGKERELVATISYSTASTYYADSVKGRFTISRDNAKNTVYLQMNSLKPEDTAVYYCAADAYFDTWYDYWGQGTQVTVSS | low polyreactivity
15 | HVQLVESGGGLVQAGGSLRLSCAASGSTFFWYAMGWYRQATGKERELVAAISKTGGSTYYADSVKGRFTISRDNAQNTVYLQMNSLKPEDTAVYYCNAVRYASKAARSFDYWGQGTQVTVSS | low polyreactivity
16 | HVQLVESGGGLVQAGGSLRLSCAASGSTFNINAMGWYRQAPGKETEFVAAINYRGGSTYYADSVKGRFTISRDNSKNTVYLQMNSLKPEDTAVYYCAAASWKVRKKFDYWGQGTQVTVSS | low polyreactivity
17 | HVQLVESGGGLVQAGGSLRLSCAASGYIFYVYAMGWYRQAPGKERELVAAINSGDITSYADSVKGRFTISRDNAKNTVYFQMNSLKPEDTAVYYCATVLILIYDYWGQGTQVTVSS | low polyreactivity
18 | HVQLVESGGGLVQAGGSLRLSFAASASIYQFYPMGWYRPAPGKERELVAGINNSGGSTYYADSVKGRFTISRDNAKNTVYLQMNSLKPEDTAVYYCMARSRYDTGRQRGYDYWGQGTQVTVSS | low polyreactivity
19 | HVQLVESGGGLVQAGGSLRLSSAASGITFYHNAMGWYRQAPGKEMELVAVSSRGGSTYYADSVKGRFTISRDNAKNTVYLQMNSLKPEDTAVYYCNARFWSYRGQVWYYYWGQGTQVTVSS | high polyreactivity
20 | HVQLVESGGGLVQAGRSLRLSCAASGGIFYRYAMGWYRQAPGKEWELVATISRRGGRTYYADSVKGRFTISRDYAKNTVYLQMYSLKPEDTAVDYCAADEWQSGHGLEDDYWGQGTQVTVSS | high polyreactivity
21 | HVQLVETGGGFVQAGVCLRLSCAASGSIFRVYVMGWYRPATVKERELVAAISHSSGGTYYADSVKWRFTISRDNAKNTVYLQMYSLKPEDTAVYYCAARSRTRRGVHLQPSSRYGSWGQGTQVTVSS | high polyreactivity
22 | HVQLVQSGGGLVQAGGSSRLSCAASGSIFFFNTMGWYSQAPGKERELVAVITSGGSTYYADSVTGRFRISRDNAKNTVYVQMNSLKPEDPAVYYCAARYLPYRRIKYDYWGQGTQVTVSS | low polyreactivity
23 | HVQRVESGGGLVQAGASLRLSCAASGGIFSYNAMGWYRQAPGKERELVAAISGTGGSTYYADSVKGRFTISRDNAMNTVYLQMNSLKPEDTAVYYCAADVEYKVFPGDYWGQGPQVTVSS | low polyreactivity
24 | KDQIVQSGAGLVQAGGSLRISCAPSGFIFTYNAMGWYIQAPGKEREIVATITWSGGSTYYADSVKGRFTISRDNAKNTVYLQMYSLNPEDTAVYYCAVDYSRHGYWSPVYVFNYWGQGTKVTVSS | low polyreactivity
25 | KSGGGLVQAGGSLRLSCAASGRIFLEYAMAWYKQAPGKERELFASISWSGDSTYYADSVKGRFTISRDNAKNTVYLQKNSLKPEDTAVYYCNADGQVGNAVSYDYWGQGTQVTVSS | low polyreactivity
26 | KVQLLESGGGLFQAGGSVRLSCAASGSIIFTYAMGWSRQSPGTEREWVAVITWCGGSTYYADSVKGRFTISRDYAKNTVYLQMNSLKPEDTAVYYCAKDSYYYRRDVTVDYWVQGTQVTVSS | low polyreactivity
27 | KVQLLQTGRGLVQAGGSLRISCAASGRLFWYSDLVWYRQAPGKESELVAAISQRGGSTYYADSVKGSFTISRDNAKNTVYLQMISLKPEDTAGYYCNADFWWAYYPWEYDYWGQGTLVTVSS | high polyreactivity
28 | KVQLVESGGALVQAGGSLRLSCAPSGSIFWNNAMGWYRQAPGKERELVAGISSAGSTNYADSVKGRFTISRDNAKNTVYLQLKSQKPEDTAVYYCAASYFSEYVWLRSYVRYYYWVQGTQVTVSS | low polyreactivity
29 | KVQLVESGGGLFQAVGSLRLSCADSGRTLGGYAMGWYRQAPGKDRELVAAITSDTGTNYADSVKGRFTISRDNAKNTVYLQMNSLKPEDTAVYYCAAERFYEYDYWGQGTQVTVSS | low polyreactivity
30 | KVQLVESGGGLVQAGASLRLSCAASGSIFATYAMGWYREEPGKERELVAAITSSDGSTNYADSVKGRFTISRDYAKNTVYLQMNSLKPEDTAVYYCATVSPDRTDSDSGFDAGYDYWGQGTQVTLSS | low polyreactivity
